Patent US11833164B2, “Methods of treating Fabry disease in patients having a mutation in the GLA gene” (Amicus Therapeutics, Inc., priority 2019, dated 2023)

System: mutant form of α-Gal A expressed in HEK-293 cells
Experiment: HEK assay (GLP HEK / Migalastat Amenability Assay): α-Gal A activity in lysates of transiently transfected HEK-293 cells incubated with or without 10 μM migalastat
Assay type: cell-based, human
Details: for Absolute increase (% WT) / Relative increase: 10 μM migalastat versus baseline; for Baseline α-Gal A activity (% WT): absence of migalastat; for Baseline α-Gal A activity (% WT) / 10 μM migalastat α-Gal A activity (% WT): percentage of baseline wild-type α-Gal A activity; for Baseline α-Gal A activity (% WT) / Baseline α-Gal A activity / 10 μM migalastat α-Gal A activity / 10 μM migalastat α-Gal A activity (% WT): mean ± SEM; for Baseline α-Gal A activity / 10 μM migalastat α-Gal A activity: lysates of HEK-293 cells transiently transfected with the mutant form; for Baseline α-Gal A activity: incubated 5 days in absence of migalastat; for 10 μM migalastat α-Gal A activity: incubated 5 days with 10 μM migalastat; for 10 μM migalastat α-Gal A activity (% WT): with 10 μM migalastat, 5 days
Summary of the method: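 Activity reported as 4-MU released (nmol/mg/hr), mean±SEM, from lysates of transiently transfected HEK-293 cells expressing mutant α-Gal A, cultured with or without 10 μM migalastat.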

| Molecule | Absolute increase (% WT) | Relative increase | Baseline α-Gal A activity (% WT) | Baseline α-Gal A activity [nmol/mg/h] | 10 μM migalastat α-Gal A activity [nmol/mg/h] | 10 μM migalastat α-Gal A activity (% WT) |
| --- | --- | --- | --- | --- | --- | --- |
| A318P (protein) MQLRNPELHLGCALALRFLALVSWDIPGARALDNGLARTPTMGWLHWERFMCNLDCQEEPDSCISEKLFMEMAELMVSEGWKDAGYEYLCIDDCWMAPQRDSEGRLQADPQRFPHGIRQLANYVHSKGLKLGIYADVGNKTCAGFPGSFGYYDIDAQTFADWGVDLLKFDGCYCDSLENLADGYKHMSLALNRTGRSIVYSCEWPLYMWPFQKPNYTEIRQYCNHWRNFADIDDSWKSIKSILDWTSFNQERIVDVAGPGGWNDPDMLVIGNFGLSWNQQVTQMALWAIMAAPLFMSNDLRHISPQAKALLQDKDVIPINQDPLGKQGYQLRQGDNFEVWERPLSGLAWAVAMINRQEIGGPRSYTIAVASLGKGVACNPACFITQLLPVKRKLGFYEWTSRLRSHINPTGTVLLQLENTMQMSLKDLL | 6.5 | 5.3 | 1.5 ± 0.2 | 526 ± 42 | 2799 ± 174 | 8 ± 0.8 |
| Q321K (protein) MQLRNPELHLGCALALRFLALVSWDIPGARALDNGLARTPTMGWLHWERFMCNLDCQEEPDSCISEKLFMEMAELMVSEGWKDAGYEYLCIDDCWMAPQRDSEGRLQADPQRFPHGIRQLANYVHSKGLKLGIYADVGNKTCAGFPGSFGYYDIDAQTFADWGVDLLKFDGCYCDSLENLADGYKHMSLALNRTGRSIVYSCEWPLYMWPFQKPNYTEIRQYCNHWRNFADIDDSWKSIKSILDWTSFNQERIVDVAGPGGWNDPDMLVIGNFGLSWNQQVTQMALWAIMAAPLFMSNDLRHISPQAKALLQDKDVIAINKDPLGKQGYQLRQGDNFEVWERPLSGLAWAVAMINRQEIGGPRSYTIAVASLGKGVACNPACFITQLLPVKRKLGFYEWTSRLRSHINPTGTVLLQLENTMQMSLKDLL | 32.0 | 2.1 | 29.2 ± 2 | 7590 ± 520 | 16046 ± 870 | 61.2 ± 2.4 |
| A318T (protein) MQLRNPELHLGCALALRFLALVSWDIPGARALDNGLARTPTMGWLHWERFMCNLDCQEEPDSCISEKLFMEMAELMVSEGWKDAGYEYLCIDDCWMAPQRDSEGRLQADPQRFPHGIRQLANYVHSKGLKLGIYADVGNKTCAGFPGSFGYYDIDAQTFADWGVDLLKFDGCYCDSLENLADGYKHMSLALNRTGRSIVYSCEWPLYMWPFQKPNYTEIRQYCNHWRNFADIDDSWKSIKSILDWTSFNQERIVDVAGPGGWNDPDMLVIGNFGLSWNQQVTQMALWAIMAAPLFMSNDLRHISPQAKALLQDKDVITINQDPLGKQGYQLRQGDNFEVWERPLSGLAWAVAMINRQEIGGPRSYTIAVASLGKGVACNPACFITQLLPVKRKLGFYEWTSRLRSHINPTGTVLLQLENTMQMSLKDLL | 17.7 | 1.3 | 45.2 ± 2.8 | 16954 ± 1483 | 22296 ± 1232 | 62.9 ± 4.6 |
| D322A (protein) MQLRNPELHLGCALALRFLALVSWDIPGARALDNGLARTPTMGWLHWERFMCNLDCQEEPDSCISEKLFMEMAELMVSEGWKDAGYEYLCIDDCWMAPQRDSEGRLQADPQRFPHGIRQLANYVHSKGLKLGIYADVGNKTCAGFPGSFGYYDIDAQTFADWGVDLLKFDGCYCDSLENLADGYKHMSLALNRTGRSIVYSCEWPLYMWPFQKPNYTEIRQYCNHWRNFADIDDSWKSIKSILDWTSFNQERIVDVAGPGGWNDPDMLVIGNFGLSWNQQVTQMALWAIMAAPLFMSNDLRHISPQAKALLQDKDVIAINQAPLGKQGYQLRQGDNFEVWERPLSGLAWAVAMINRQEIGGPRSYTIAVASLGKGVACNPACFITQLLPVKRKLGFYEWTSRLRSHINPTGTVLLQLENTMQMSLKDLL | 15.3 | 3.2 | 6.8 ± 0.4 | 1908 ± 139 | 6170 ± 310 | 22.2 ± 1 |
| N320S (protein) MQLRNPELHLGCALALRFLALVSWDIPGARALDNGLARTPTMGWLHWERFMCNLDCQEEPDSCISEKLFMEMAELMVSEGWKDAGYEYLCIDDCWMAPQRDSEGRLQADPQRFPHGIRQLANYVHSKGLKLGIYADVGNKTCAGFPGSFGYYDIDAQTFADWGVDLLKFDGCYCDSLENLADGYKHMSLALNRTGRSIVYSCEWPLYMWPFQKPNYTEIRQYCNHWRNFADIDDSWKSIKSILDWTSFNQERIVDVAGPGGWNDPDMLVIGNFGLSWNQQVTQMALWAIMAAPLFMSNDLRHISPQAKALLQDKDVIAISQDPLGKQGYQLRQGDNFEVWERPLSGLAWAVAMINRQEIGGPRSYTIAVASLGKGVACNPACFITQLLPVKRKLGFYEWTSRLRSHINPTGTVLLQLENTMQMSLKDLL | 23.9 | 1.3 | 82.9 ± 4.5 | 21562 ± 1285 | 28097 ± 1522 | 106.7 ± 3.9 |
| D322V (protein) MQLRNPELHLGCALALRFLALVSWDIPGARALDNGLARTPTMGWLHWERFMCNLDCQEEPDSCISEKLFMEMAELMVSEGWKDAGYEYLCIDDCWMAPQRDSEGRLQADPQRFPHGIRQLANYVHSKGLKLGIYADVGNKTCAGFPGSFGYYDIDAQTFADWGVDLLKFDGCYCDSLENLADGYKHMSLALNRTGRSIVYSCEWPLYMWPFQKPNYTEIRQYCNHWRNFADIDDSWKSIKSILDWTSFNQERIVDVAGPGGWNDPDMLVIGNFGLSWNQQVTQMALWAIMAAPLFMSNDLRHISPQAKALLQDKDVIAINQVPLGKQGYQLRQGDNFEVWERPLSGLAWAVAMINRQEIGGPRSYTIAVASLGKGVACNPACFITQLLPVKRKLGFYEWTSRLRSHINPTGTVLLQLENTMQMSLKDLL | 11.7 | 5.6 | 2.6 ± 0.2 | 714 ± 53 | 3989 ± 217 | 14.3 ± 0.6 |
| I319M (protein) MQLRNPELHLGCALALRFLALVSWDIPGARALDNGLARTPTMGWLHWERFMCNLDCQEEPDSCISEKLFMEMAELMVSEGWKDAGYEYLCIDDCWMAPQRDSEGRLQADPQRFPHGIRQLANYVHSKGLKLGIYADVGNKTCAGFPGSFGYYDIDAQTFADWGVDLLKFDGCYCDSLENLADGYKHMSLALNRTGRSIVYSCEWPLYMWPFQKPNYTEIRQYCNHWRNFADIDDSWKSIKSILDWTSFNQERIVDVAGPGGWNDPDMLVIGNFGLSWNQQVTQMALWAIMAAPLFMSNDLRHISPQAKALLQDKDVIAMNQDPLGKQGYQLRQGDNFEVWERPLSGLAWAVAMINRQEIGGPRSYTIAVASLGKGVACNPACFITQLLPVKRKLGFYEWTSRLRSHINPTGTVLLQLENTMQMSLKDLL | 9.4 | 1.2 | 47.4 ± 2.2 | 12191 ± 433 | 14802 ± 727 | 56.8 ± 2.3 |
| A318V (protein) MQLRNPELHLGCALALRFLALVSWDIPGARALDNGLARTPTMGWLHWERFMCNLDCQEEPDSCISEKLFMEMAELMVSEGWKDAGYEYLCIDDCWMAPQRDSEGRLQADPQRFPHGIRQLANYVHSKGLKLGIYADVGNKTCAGFPGSFGYYDIDAQTFADWGVDLLKFDGCYCDSLENLADGYKHMSLALNRTGRSIVYSCEWPLYMWPFQKPNYTEIRQYCNHWRNFADIDDSWKSIKSILDWTSFNQERIVDVAGPGGWNDPDMLVIGNFGLSWNQQVTQMALWAIMAAPLFMSNDLRHISPQAKALLQDKDVIVINQDPLGKQGYQLRQGDNFEVWERPLSGLAWAVAMINRQEIGGPRSYTIAVASLGKGVACNPACFITQLLPVKRKLGFYEWTSRLRSHINPTGTVLLQLENTMQMSLKDLL | 16.5 | 1.4 | 37.9 ± 2.1 | 14603 ± 1377 | 19658 ± 1108 | 54.4 ± 3.5 |
| N320T (protein) MQLRNPELHLGCALALRFLALVSWDIPGARALDNGLARTPTMGWLHWERFMCNLDCQEEPDSCISEKLFMEMAELMVSEGWKDAGYEYLCIDDCWMAPQRDSEGRLQADPQRFPHGIRQLANYVHSKGLKLGIYADVGNKTCAGFPGSFGYYDIDAQTFADWGVDLLKFDGCYCDSLENLADGYKHMSLALNRTGRSIVYSCEWPLYMWPFQKPNYTEIRQYCNHWRNFADIDDSWKSIKSILDWTSFNQERIVDVAGPGGWNDPDMLVIGNFGLSWNQQVTQMALWAIMAAPLFMSNDLRHISPQAKALLQDKDVIAITQDPLGKQGYQLRQGDNFEVWERPLSGLAWAVAMINRQEIGGPRSYTIAVASLGKGVACNPACFITQLLPVKRKLGFYEWTSRLRSHINPTGTVLLQLENTMQMSLKDLL | 21.8 | 2.0 | 21.6 ± 1.5 | 5597 ± 442 | 11276 ± 658 | 43.3 ± 1.9 |
